The target of the assay is Siglec-10Fc (human) (UniProt Q96LC7). Nature of the assay: Biacore (SPR): control Fc compared with CD24Fc for binding of Siglec-10Fc; only the fitted value is printed under the KD line, no curve is drawn for the control.
Chain of UniProt Q96LC7 (Q96LC7 17-546): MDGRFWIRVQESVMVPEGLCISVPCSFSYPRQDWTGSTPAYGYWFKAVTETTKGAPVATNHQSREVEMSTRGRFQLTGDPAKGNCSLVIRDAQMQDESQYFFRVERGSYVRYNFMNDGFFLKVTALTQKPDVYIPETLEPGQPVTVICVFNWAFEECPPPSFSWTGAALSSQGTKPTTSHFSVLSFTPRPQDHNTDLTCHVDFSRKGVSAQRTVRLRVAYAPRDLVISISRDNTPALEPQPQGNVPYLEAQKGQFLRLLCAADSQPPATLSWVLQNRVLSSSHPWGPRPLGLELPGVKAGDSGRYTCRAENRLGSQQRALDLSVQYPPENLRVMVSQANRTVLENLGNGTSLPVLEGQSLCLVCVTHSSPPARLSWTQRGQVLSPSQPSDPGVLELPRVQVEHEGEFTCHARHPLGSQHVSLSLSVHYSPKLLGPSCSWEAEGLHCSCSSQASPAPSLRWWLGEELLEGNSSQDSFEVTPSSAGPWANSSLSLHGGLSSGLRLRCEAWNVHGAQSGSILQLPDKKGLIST

Regarding control Fc, the Kd amounted to 16.2 µM.

The record behind these values is patent US20210046154A1.
